Series [1] addresses T1, KDR (VEGFR-2) expressed on porcine aortic endothelial (PAE) cells (UniProt P35968 20-1356, limits assumed).
T1 construct: whole, on cells; KDR is the name of the human receptor; also called KDR/Flk-1; PAE-KDR cells
Nature of the series: Scatchard analysis (125I-labelled ligand; receptor format not given, PAE/VEGFR-2 cells in the same example). The method, then: To study receptor binding, PAE/VEGFR-2 and PAE/VEGFR-3 cells were seeded into 24-well tissue culture plates (Nunclon), which had been coated with 2% gelatin in PBS. […] The binding was allowed to proceed at room temperature for 90 minutes. The plates were then transferred onto ice and washed three times with ice-cold PBS containing 0.1% BSA. The cells were then lysed in 1 M NaOH, the lysates were collected, and the radioactivity was measured using a γ-counter.

Series [2] deals with the molecule itself. Nature of the series: chemical crosslinking, SDS-PAGE (homodimer).

T1 sequence (P35968 20-1356 limits assumed): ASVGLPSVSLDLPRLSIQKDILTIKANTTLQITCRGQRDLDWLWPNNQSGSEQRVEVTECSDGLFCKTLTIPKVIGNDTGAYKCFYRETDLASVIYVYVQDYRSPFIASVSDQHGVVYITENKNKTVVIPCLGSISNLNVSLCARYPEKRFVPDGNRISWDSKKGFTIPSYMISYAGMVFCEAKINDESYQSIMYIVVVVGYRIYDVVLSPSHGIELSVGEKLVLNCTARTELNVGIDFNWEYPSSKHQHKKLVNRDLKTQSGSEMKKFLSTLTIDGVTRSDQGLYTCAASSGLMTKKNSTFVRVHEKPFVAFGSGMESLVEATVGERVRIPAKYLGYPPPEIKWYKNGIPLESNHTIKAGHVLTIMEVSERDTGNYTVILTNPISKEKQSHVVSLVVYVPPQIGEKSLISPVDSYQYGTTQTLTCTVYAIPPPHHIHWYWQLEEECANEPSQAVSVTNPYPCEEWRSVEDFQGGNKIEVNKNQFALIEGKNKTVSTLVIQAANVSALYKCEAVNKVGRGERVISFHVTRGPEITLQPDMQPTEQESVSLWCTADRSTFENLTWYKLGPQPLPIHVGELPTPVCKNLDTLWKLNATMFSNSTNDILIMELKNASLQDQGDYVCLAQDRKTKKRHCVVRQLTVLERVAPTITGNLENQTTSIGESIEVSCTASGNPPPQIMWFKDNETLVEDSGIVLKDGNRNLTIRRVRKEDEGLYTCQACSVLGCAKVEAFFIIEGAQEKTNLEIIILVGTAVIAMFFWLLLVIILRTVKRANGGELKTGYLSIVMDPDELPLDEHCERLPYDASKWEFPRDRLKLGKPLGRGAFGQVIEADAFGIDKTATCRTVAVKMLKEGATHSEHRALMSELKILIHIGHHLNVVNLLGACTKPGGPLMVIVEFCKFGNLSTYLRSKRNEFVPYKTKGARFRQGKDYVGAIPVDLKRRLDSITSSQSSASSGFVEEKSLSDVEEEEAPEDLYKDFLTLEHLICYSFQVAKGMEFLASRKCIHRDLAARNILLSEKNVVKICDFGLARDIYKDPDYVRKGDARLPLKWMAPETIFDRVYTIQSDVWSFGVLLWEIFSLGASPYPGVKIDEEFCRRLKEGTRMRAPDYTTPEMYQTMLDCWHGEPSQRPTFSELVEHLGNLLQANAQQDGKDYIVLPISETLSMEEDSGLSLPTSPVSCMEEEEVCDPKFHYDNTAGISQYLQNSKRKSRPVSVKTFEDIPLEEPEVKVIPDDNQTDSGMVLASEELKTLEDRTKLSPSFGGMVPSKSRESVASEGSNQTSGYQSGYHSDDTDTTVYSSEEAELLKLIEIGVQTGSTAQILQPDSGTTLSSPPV

B1: VEGF-C ΔNΔCHis (ligand)
chain: TEETIKFAAAHYNTEILKSIDNEWRKTQCMPREVCIDVGKEFGVATNTFFKPPCVSVYRCGGCCNSEGLQCMNTSTSYLSKTLFEITVPLSQGPKPVTISFANHTSCRCMSKLDVYRQVHSIIHHHHHH
modifications: 125I label in the tracer used for Scatchard and competition assays
notes: also called VEGF-C ΔCΔNHis; recombinantly-matured VEGF-C
In series [1], B1 displayed a Kd of 410 pM. The binding result in series [2] was “binds”.

The term Kd denotes the concentration at which binding is half-saturated. Lower therefore signals higher affinity.

The values above are taken from patent US20080241152A1 (VEGENICS, published 2008).
